Reference: PMC9352680, “A comprehensive thermodynamic model for RNA binding by the Saccharomyces cerevisiae Pumilio protein PUF4”

T1: PUF4 RNA-binding domain (Saccharomyces cerevisiae, UniProt P25339 537-888)
T1 sequence: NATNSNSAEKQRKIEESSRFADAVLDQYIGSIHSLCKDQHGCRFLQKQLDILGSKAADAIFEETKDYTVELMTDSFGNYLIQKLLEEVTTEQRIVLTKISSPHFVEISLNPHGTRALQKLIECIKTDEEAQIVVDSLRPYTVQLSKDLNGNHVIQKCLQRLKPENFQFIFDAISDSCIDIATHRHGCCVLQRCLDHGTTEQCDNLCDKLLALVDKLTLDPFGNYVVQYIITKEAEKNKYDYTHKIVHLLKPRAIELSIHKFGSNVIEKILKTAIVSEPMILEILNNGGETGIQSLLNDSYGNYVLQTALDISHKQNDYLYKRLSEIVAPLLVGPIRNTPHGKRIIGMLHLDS


Target: T1, PUF4 RNA-binding domain
Experiment: Mg; RNA-MaP; 20 mM Na-HEPES pH 7.4, 30 mM KOAc, 0.75 mM MgCl2, 0.1% Tween-20, 5% glycerol, 0.1 mg/mL BSA, 2 mM DTT; 25 C; 0.0125-409.6 nM protein
Details: tags: N-His6-TEV cleaved; C-SNAP kept, Cy3B-labelled; label: tethered on chip by stalled RNA polymerase

Row | Binder | Kd [nM]
1 | UCUCUUGUUGUAUAUUAUCUCUCUU (ssRNA) [Id_ii_S1_P4E.2_K4.1_C4.2_[C-2G]_H4.1_A4.1_F4.1_T4.2_[G10T]_[T11C]] | 0.891
2 | UCUCUUACACACUAUAACUCUCUU (ssRNA) [Id_ii_S1_P3E.4_K3.3_C3.2_[C-2A]_[T-1C]_H3.3_A3.1_F3.1_T3.2_[T9A]_[A10C]] | > 2300
3 | UCUCUUCCACACUAUAAUUCUCUU (ssRNA) [Id_ii_S1_P3E.4_K3.3_C3.2_[T-1C]_H3.3_A3.1_F3.1_T3.2_[T9A]_[A10T]] | > 2300
4 | UCUCUUACACACUAUAUUUCUCUU (ssRNA) [Id_ii_S1_P3E.4_K3.3_C3.2_[C-2A]_[T-1C]_H3.3_A3.1_F3.1_T3.2_[A10T]] | > 2300
5 | UCUCUUAGACACUAUACAUCUCUU (ssRNA) [Id_ii_S1_P3E.4_K3.3_C3.2_[C-2A]_[T-1G]_H3.3_A3.1_F3.1_T3.2_[T9C]] | > 2300
6 | UCUCUUAAACACUAUAUUUCUCUU (ssRNA) [Id_ii_S1_P3E.4_K3.3_C3.2_[C-2A]_[T-1A]_H3.3_A3.1_F3.1_T3.2_[A10T]] | > 2300
7 | UCUCUUAGACACUAUACCUCUCUU (ssRNA) [Id_ii_S1_P3E.4_K3.3_C3.2_[C-2A]_[T-1G]_H3.3_A3.1_F3.1_T3.2_[T9C]_[A10C]] | > 2300
8 | UCUCUUAAACACUAUAGCUCUCUU (ssRNA) [Id_ii_S1_P3E.4_K3.3_C3.2_[C-2A]_[T-1A]_H3.3_A3.1_F3.1_T3.2_[T9G]_[A10C]] | > 2300
9 | UCUCUUGCUGUAUAUUAUUUCUCUU (ssRNA) [Id_ii_S1_P4E.2_K4.1_C4.2_[C-2G]_[T-1C]_H4.1_A4.1_F4.1_T4.2_[G10T]] | 1.28
10 | UCUCUUCCACACUAUAUUUCUCUU (ssRNA) [Id_ii_S1_P3E.4_K3.3_C3.2_[T-1C]_H3.3_A3.1_F3.1_T3.2_[A10T]] | > 2300
11 | UCUCUUACACACUAUAGAUCUCUU (ssRNA) [Id_ii_S1_P3E.4_K3.3_C3.2_[C-2A]_[T-1C]_H3.3_A3.1_F3.1_T3.2_[T9G]] | > 2300
12 | UCUCUUAAACACUAUAAAUCUCUU (ssRNA) [Id_ii_S1_P3E.4_K3.3_C3.2_[C-2A]_[T-1A]_H3.3_A3.1_F3.1_T3.2_[T9A]] | > 2300
13 | UCUCUUAUACACUAUAACUCUCUU (ssRNA) [Id_ii_S1_P3E.4_K3.3_C3.2_[C-2A]_H3.3_A3.1_F3.1_T3.2_[T9A]_[A10C]] | 46.2
14 | UCUCUUCUACACUAUAUGUCUCUU (ssRNA) [Id_ii_S1_P3E.4_K3.3_C3.2_H3.3_A3.1_F3.1_T3.2_[A10G]] | 1320
15 | UCUCUUGCUGUAUAUUAUGUCUCUU (ssRNA) [Id_ii_S1_P4E.2_K4.1_C4.2_[C-2G]_[T-1C]_H4.1_A4.1_F4.1_T4.2_[G10T]_[T11G]] | 2.24
16 | UCUCUUGCUGUAUAUUAACUCUCUU (ssRNA) [Id_ii_S1_P4E.2_K4.1_C4.2_[C-2G]_[T-1C]_H4.1_A4.1_F4.1_T4.2_[G10A]_[T11C]] | 1.52

Row | Binder | Kd [nM]
17 | UCUCUUCCACACUAUAGCUCUCUU (ssRNA) [Id_ii_S1_P3E.4_K3.3_C3.2_[T-1C]_H3.3_A3.1_F3.1_T3.2_[T9G]_[A10C]] | > 2300
18 | UCUCUUAAACACUAUAACUCUCUU (ssRNA) [Id_ii_S1_P3E.4_K3.3_C3.2_[C-2A]_[T-1A]_H3.3_A3.1_F3.1_T3.2_[T9A]_[A10C]] | > 2300
19 | UCUCUUCAACACUAUAGAUCUCUU (ssRNA) [Id_ii_S1_P3E.4_K3.3_C3.2_[T-1A]_H3.3_A3.1_F3.1_T3.2_[T9G]] | > 2300
20 | UCUCUUAUACACUAUAUAUCUCUU (ssRNA) [Id_ii_S1_P3E.4_K3.3_C3.2_[C-2A]_H3.3_A3.1_F3.1_T3.2] | 31.3
21 | UCUCUUGCUGUAUAUUAAUUCUCUU (ssRNA) [Id_ii_S1_P4E.2_K4.1_C4.2_[C-2G]_[T-1C]_H4.1_A4.1_F4.1_T4.2_[G10A]] | 2.69
22 | UCUCUUCUACACUAUAACUCUCUU (ssRNA) [Id_ii_S1_P3E.4_K3.3_C3.2_H3.3_A3.1_F3.1_T3.2_[T9A]_[A10C]] | > 2300
23 | UCUCUUCGACACUAUAGCUCUCUU (ssRNA) [Id_ii_S1_P3E.4_K3.3_C3.2_[T-1G]_H3.3_A3.1_F3.1_T3.2_[T9G]_[A10C]] | > 2300
24 | UCUCUUGCUGUAUAUUAUCUCUCUU (ssRNA) [Id_ii_S1_P4E.2_K4.1_C4.2_[C-2G]_[T-1C]_H4.1_A4.1_F4.1_T4.2_[G10T]_[T11C]] | 1.14
25 | UCUCUUAUACACUAUAUCUCUCUU (ssRNA) [Id_ii_S1_P3E.4_K3.3_C3.2_[C-2A]_H3.3_A3.1_F3.1_T3.2_[A10C]] | 40.6
26 | UCUCUUCUACACUAUAGUUCUCUU (ssRNA) [Id_ii_S1_P3E.4_K3.3_C3.2_H3.3_A3.1_F3.1_T3.2_[T9G]_[A10T]] | > 2300
27 | UCUCUUAAACACUAUACAUCUCUU (ssRNA) [Id_ii_S1_P3E.4_K3.3_C3.2_[C-2A]_[T-1A]_H3.3_A3.1_F3.1_T3.2_[T9C]] | > 2300
28 | UCUCUUAUACACUAUACGUCUCUU (ssRNA) [Id_ii_S1_P3E.4_K3.3_C3.2_[C-2A]_H3.3_A3.1_F3.1_T3.2_[T9C]_[A10G]] | 74.5
29 | UCUCUUUUUAUAGUAUCUCUU (ssRNA) [Ib_S1_P4E.1_K4.1_C4.1_H4.1_[G2T]_A4.1_[T7G]_F4.1_T4.1] | > 2300
30 | UCUCUUCUACACUAUAGCUCUCUU (ssRNA) [Id_ii_S1_P3E.4_K3.3_C3.2_H3.3_A3.1_F3.1_T3.2_[T9G]_[A10C]] | > 2300
31 | UCUCUUCAACACUAUAAAUCUCUU (ssRNA) [Id_ii_S1_P3E.4_K3.3_C3.2_[T-1A]_H3.3_A3.1_F3.1_T3.2_[T9A]] | > 2300
